Paper PMC6168280 (The Journal of Cell Biology, 2018)

Key:
[1] = biological target: C. thermophilum Vps1 GG (minimal GTPase-BSE fusion) (C. thermophilum); assay: SEC-MALS
SEC-MALS = biological target: the molecule itself; assay: SEC-MALS

C. thermophilum Vps1 GG (minimal GTPase-BSE fusion) (domain or fragment)
stoichiometry N [1]: 2

B1: S. cerevisiae Vps1 G436D (natural protein)
chain: MDEHLISTINKLQDALAPLGGGSQSPIDLPQITVVGSQSSGKSSVLENIVGRDFLPRGTGIVTRRPLVLQLINRRPKKSEHAKVNQTANELIDLNINDDDKKKDESGKHQNEGQSEDNKEEWGEFLHLPGKKFYNFDEIRKEIVKETDKVTGANSGISSVPINLRIYSPHVLTLTLVDLPGLTKVPVGDQPPDIERQIKDMLLKYISKPNAIILSVNAANTDLANSDGLKLAREVDPEGTRTIGVLTKVDLMDQGTDVIDILAGRVIPLRYGYIPVINRGQKDIEHKKTIREALENERKFFENHPSYSSKAHYCGTPYLAKKLNSILLHHIRQTLPEIKAKIEATLKKYQNELINLGPETMDSASSVVLSMITDFSNEYAGILDGEAKELSSQELSGGARISYVFHETFKNGVDSLDPFDQIKDSDIRTIMYNSSDSAPSLFVGTEAFEVLVKQQIRRFEEPSLRLVTLVFDELVRMLKQIISQPKYSRYPALREAISNQFIQFLKDATIPTNEFVVDIIKAEQTYINTAHPDLLKGSQAMVMVEEKLHPRQVAVDPKTGKPLPTQPSSSKAPVMEEKSGFFGGFFSTKNKKKLAALESPPPVLKATGQMTERETMETEVIKLLISSYFSIVKRTIADIIPKALMLKLIVKSKTDIQKVLLEKLYGKQDIEELTKENDITIQRRKECKKMVEILRNASQIVSSV
stoichiometry N (SEC-MALS): 2
